Assay [1] addresses extracellular portion of integrin αVβ3 (R&D Systems) (UniProt P06756). As to the kind of experiment: ELISA; receptor (CD44v or integrin) plated on a high-binding 96-well plate, GST-OPN in solution 2 h at room temperature; 10 mM HEPES pH 7.4, 150 mM NaCl, 2 mM MnCl2, 0.05% Tween 20; detection with HRP-anti-GST; constants from double-reciprocal plots. In general terms: An ELISA detects its analyte on a solid surface through an enzyme-linked reagent.

The target of assay [2] is truncated version of CD44v (MyBiosource). The description is as above.
truncated version of CD44v (MyBiosource), sequence (P16070 21-742): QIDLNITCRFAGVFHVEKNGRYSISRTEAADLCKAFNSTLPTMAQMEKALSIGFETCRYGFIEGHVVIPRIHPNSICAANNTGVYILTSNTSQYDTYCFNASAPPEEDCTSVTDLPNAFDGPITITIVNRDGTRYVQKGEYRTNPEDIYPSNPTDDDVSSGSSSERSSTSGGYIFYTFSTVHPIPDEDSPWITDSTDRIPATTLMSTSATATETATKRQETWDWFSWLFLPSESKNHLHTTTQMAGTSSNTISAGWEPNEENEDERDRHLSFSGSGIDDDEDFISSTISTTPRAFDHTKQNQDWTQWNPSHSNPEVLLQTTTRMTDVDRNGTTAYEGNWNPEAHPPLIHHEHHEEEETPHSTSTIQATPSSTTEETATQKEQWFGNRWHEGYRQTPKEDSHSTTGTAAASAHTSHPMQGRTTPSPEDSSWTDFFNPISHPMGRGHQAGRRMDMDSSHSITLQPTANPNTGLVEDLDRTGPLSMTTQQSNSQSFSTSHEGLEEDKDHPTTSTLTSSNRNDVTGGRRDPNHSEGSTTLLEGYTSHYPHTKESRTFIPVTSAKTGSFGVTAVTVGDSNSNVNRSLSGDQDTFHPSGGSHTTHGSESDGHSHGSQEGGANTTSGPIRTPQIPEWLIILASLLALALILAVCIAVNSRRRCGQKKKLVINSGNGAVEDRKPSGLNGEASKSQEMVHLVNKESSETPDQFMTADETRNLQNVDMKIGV
Assay [3] has as its target Recombinant extracellular domain of CD44 (aa21–606), His- and SUMO-tags (Lifespan Biosciences). The description is as above.
In assay [4] the target is T1, extracellular portion of integrin α9β1 (R&D Systems) (UniProt Q13797 30-977; P05556 21-728).
T1 construct: also called α9β1 extracellular domain; source: bought: R&D Systems
T1 sequence (Q13797 30-977, chain 1 of 2): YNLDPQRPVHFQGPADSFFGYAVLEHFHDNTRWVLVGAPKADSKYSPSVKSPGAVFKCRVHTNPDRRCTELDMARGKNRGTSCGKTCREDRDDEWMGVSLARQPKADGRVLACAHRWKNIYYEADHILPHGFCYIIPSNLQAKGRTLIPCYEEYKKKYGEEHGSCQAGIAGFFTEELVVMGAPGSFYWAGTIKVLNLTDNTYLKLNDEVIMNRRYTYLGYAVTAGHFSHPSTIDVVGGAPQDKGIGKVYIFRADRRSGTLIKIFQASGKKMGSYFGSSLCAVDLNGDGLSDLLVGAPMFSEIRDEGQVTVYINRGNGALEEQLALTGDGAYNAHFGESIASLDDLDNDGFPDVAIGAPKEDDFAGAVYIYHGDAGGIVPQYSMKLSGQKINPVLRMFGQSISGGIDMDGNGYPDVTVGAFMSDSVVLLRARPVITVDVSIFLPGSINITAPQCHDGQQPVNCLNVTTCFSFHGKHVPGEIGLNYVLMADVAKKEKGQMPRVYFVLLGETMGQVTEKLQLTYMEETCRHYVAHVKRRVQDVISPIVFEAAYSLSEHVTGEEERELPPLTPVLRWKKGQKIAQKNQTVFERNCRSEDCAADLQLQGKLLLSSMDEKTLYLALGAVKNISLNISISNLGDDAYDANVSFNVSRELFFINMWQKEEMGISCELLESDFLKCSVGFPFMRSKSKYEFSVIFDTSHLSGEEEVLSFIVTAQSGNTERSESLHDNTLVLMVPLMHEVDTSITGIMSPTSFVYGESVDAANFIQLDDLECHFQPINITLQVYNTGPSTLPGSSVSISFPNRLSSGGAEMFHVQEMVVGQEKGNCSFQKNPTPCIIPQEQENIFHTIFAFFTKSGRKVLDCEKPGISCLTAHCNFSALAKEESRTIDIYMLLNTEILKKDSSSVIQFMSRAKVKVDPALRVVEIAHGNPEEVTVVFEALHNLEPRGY
T1 sequence (P05556 21-728, chain 2 of 2): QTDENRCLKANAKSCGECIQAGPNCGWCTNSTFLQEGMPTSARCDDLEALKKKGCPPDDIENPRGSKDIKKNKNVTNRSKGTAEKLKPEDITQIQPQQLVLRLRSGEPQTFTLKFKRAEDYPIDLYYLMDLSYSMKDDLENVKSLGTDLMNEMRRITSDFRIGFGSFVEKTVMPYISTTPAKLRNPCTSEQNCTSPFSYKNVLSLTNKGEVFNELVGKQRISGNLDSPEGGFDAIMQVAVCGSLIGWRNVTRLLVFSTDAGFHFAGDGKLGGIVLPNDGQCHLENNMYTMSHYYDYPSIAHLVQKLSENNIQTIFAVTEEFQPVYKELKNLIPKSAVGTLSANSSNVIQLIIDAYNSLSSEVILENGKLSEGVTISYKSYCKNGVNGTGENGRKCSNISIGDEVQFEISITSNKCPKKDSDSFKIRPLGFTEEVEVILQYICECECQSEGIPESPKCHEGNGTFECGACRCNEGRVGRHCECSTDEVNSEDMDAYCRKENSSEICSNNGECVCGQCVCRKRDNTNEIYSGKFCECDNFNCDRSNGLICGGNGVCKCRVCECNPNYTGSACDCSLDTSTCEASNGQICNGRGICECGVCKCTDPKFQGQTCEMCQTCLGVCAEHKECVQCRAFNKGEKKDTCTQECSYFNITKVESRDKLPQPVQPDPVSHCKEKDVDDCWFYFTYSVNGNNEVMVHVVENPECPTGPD
As to the kind of experiment: SPR; BIACORE 2000, CM5 chip; about 8000 RU of GST-OPN, CD44v or integrin α9β1 immobilised by amine coupling, BSA control flow cell; one protein in the flow, 50 μL/min, 120 s; 10 mM HEPES, 150 mM NaCl, pH 7.4, 0.05% Tween 20, 0.4 mM MnCl2, 25 °C. Particulars: both partners purified. (In general: Surface plasmon resonance follows binding to a sensor surface in real time, without labels.)

“GST-OPNc (from UniProt P10451-3 17-287) (ligand)” had a half-maximal binding concentration (OPN titrated 7.8–500 ng, aVb3 200 ng, taken from the rows above) in assay [1] of 314 ng.
With GST-OPNb (ligand), the half-maximal binding concentration (OPN titrated 7.8–500 ng, aVb3 200 ng, taken from the row above) in assay [1] turned out to be 502 ng.
For “Bacterial recombinant GST-OPNa (after deletion of the signal sequence) (from UniProt P10451-1 17-314) (ligand)”, the fold lower affinity than for LSBio CD44v in assay [2] turned out to be 8 fold. Further, in assay [3], the half-maximal binding concentration (CD44 titrated 0–1000 ng, OPN 125 ng) was determined as 95.5 ng; the half-maximal binding concentration (CD44 titrated 0–1000 ng, OPN 250 ng) stood at 60.9 ng; the half-maximal binding concentration (CD44 titrated 0–1000 ng, OPN 500 ng) was 107 ng; the half-maximal binding concentration (CD44 titrated 0–1000 ng, OPN 1000 ng) worked out at 151 ng. Besides, in assay [3], the half-maximal binding concentration (CD44 titrated 0–1000 ng, OPN 2000 ng) was determined as 123 ng; the half-maximal binding concentration (CD44 titrated 0–1000 ng, OPN 4000 ng) is 138 ng; the half-maximal binding concentration (OPN titrated 125–500 ng, CD44 65 ng) is 0.77 ng; the half-maximal binding concentration (OPN titrated 125–500 ng, CD44 125 ng) was 8.09 ng. Also, in assay [3], the half-maximal binding concentration (OPN titrated 125–500 ng, CD44 250 ng) is 40.5 ng; the half-maximal binding concentration (OPN titrated 125–500 ng, CD44 500 ng) is 50.8 ng; the half-maximal binding concentration (OPN titrated 125–500 ng, CD44 1000 ng) worked out at 60.3 ng.

B1: extracellular portion of integrin αVβ3 (R&D Systems) (receptor)
chain 1: FNLDVDSPAEYSGPEGSYFGFAVDFFVPSASSRMFLLVGAPKANTTQPGIVEGGQVLKCDWSSTRRCQPIEFDATGNRDYAKDDPLEFKSHQWFGASVRSKQDKILACAPLYHWRTEMKQEREPVGTCFLQDGTKTVEYAPCRSQDIDADGQGFCQGGFSIDFTKADRVLLGGPGSFYWQGQLISDQVAEIVSKYDPNVYSIKYNNQLATRTAQAIFDDSYLGYSVAVGDFNGDGIDDFVSGVPRAARTLGMVYIYDGKNMSSLYNFTGEQMAAYFGFSVAATDINGDDYADVFIGAPLFMDRGSDGKLQEVGQVSVSLQRASGDFQTTKLNGFEVFARFGSAIAPLGDLDQDGFNDIAIAAPYGGEDKKGIVYIFNGRSTGLNAVPSQILEGQWAARSMPPSFGYSMKGATDIDKNGYPDLIVGAFGVDRAILYRARPVITVNAGLEVYPSILNQDNKTCSLPGTALKVSCFNVRFCLKADGKGVLPRKLNFQVELLLDKLKQKGAIRRALFLYSRSPSHSKNMTISRGGLMQCEELIAYLRDESEFRDKLTPITIFMEYRLDYRTAADTTGLQPILNQFTPANISRQAHILLDCGEDNVCKPKLEVSVDSDQKKIYIGDDNPLTLIVKAQNQGEGAYEAELIVSIPLQADFIGVVRNNEALARLSCAFKTENQTRQVVCDLGNPMKAGTQLLAGLRFSVHQQSEMDTSVKFDLQIQSSNLFDKVSPVVSHKVDLAVLAAVEIRGVSSPDHVFLPIPNWEHKENPETEEDVGPVVQHIYELRNNGPSSFSKAMLHLQWPYKYNNNTLLYILHYDIDGPMNCTSDMEINPLRIKISSLQTTEKNDTVAGQGERDHLITKRDLALSEGDIHTLGCGVAQCLKIVCQVGRLDRGKSAILYVKSLLWTETFMNKENQNHSYSLKSSASFNVIEFPYKNLPIEDITNSTLVTTNVTWGIQPAPMPV
chain 2: GPNICTTRGVSSCQQCLAVSPMCAWCSDEALPLGSPRCDLKENLLKDNCAPESIEFPVSEARVLEDRPLSDKGSGDSSQVTQVSPQRIALRLRPDDSKNFSIQVRQVEDYPVDIYYLMDLSYSMKDDLWSIQNLGTKLATQMRKLTSNLRIGFGAFVDKPVSPYMYISPPEALENPCYDMKTTCLPMFGYKHVLTLTDQVTRFNEEVKKQSVSRNRDAPEGGFDAIMQATVCDEKIGWRNDASHLLVFTTDAKTHIALDGRLAGIVQPNDGQCHVGSDNHYSASTTMDYPSLGLMTEKLSQKNINLIFAVTENVVNLYQNYSELIPGTTVGVLSMDSSNVLQLIVDAYGKIRSKVELEVRDLPEELSLSFNATCLNNEVIPGLKSCMGLKIGDTVSFSIEAKVRGCPQEKEKSFTIKPVGFKDSLIVQVTFDCDCACQAQAEPNSHRCNNGNGTFECGVCRCGPGWLGSQCECSEEDYRPSQQDECSPREGQPVCSQRGECLCGQCVCHSSDFGKITGKYCECDDFSCVRYKGEMCSGHGQCSCGDCLCDSDWTGYYCNCTTRTDTCMSSNGLLCSGRGKCECGSCVCIQPGSYGDTCEKCPTCPDACTFKKECVECKKFDRGALHDENTCNRYCRDEIESVKELKDTGKDAVNCTYKNEDDCVVRFQYYEDSSGKSILYVVEEPECPKGPD
notes: also called aVb3; source: bought: R&D Systems
Turning to B1, in assay [4], the binding result is listed as “binds”.

The record behind these values is article PMC8228714, “Structural Constraint of Osteopontin Facilitates Efficient Binding to CD44” (Biomolecules, 2021).
